Laboratory results: patent US20250304690A1 (HANGZHOU VIROMAB BIOTECH, published 2025)

What was measured:
[1] = target: TT3 antigen (ELISA coating antigen); experiment: ELISA, plate-coated TT3 antigen
Protocol: The activity of the prepared humanized antibodies was assessed by ELISA as follows: The TT3 antigen was diluted to 0.5 g/mL using a coating solution and added to a 96-well plate at 100 L/well, and the plate was incubated overnight at 4° C. The plate was washed with PBST. Then 200 μL of an antibody blocking solution was added to each well, and blocking was performed at 37° C. for 2 h. The plate was washed with PBST. Different antibodies (initial concentration: 100 nM; serially diluted in a 1:6 ratio) were added at 100 L/well, and the plate was incubated at 37° C. for 2 h. The plate was washed with PBST. An HRP-bound goat anti-human/mouse IgG antibody was added at 100 μL/well, and the plate was incubated at 37° C. for 1 h. The plate was washed with PBST, and TMB was added at 100 L/well. Color development was performed at 37° C. for 10-20 min, and 50 µL of 2 M sulfuric acid was added to each well to stop the reaction. OD readings were taken at a wavelength of 450 nm.

[2] = target: TT3 labeling polypeptide on cells; experiment: flow cytometry on MC38-TT3 cells
[3] = target: TT3 labeling polypeptide on cells; experiment: flow cytometry on HCT116-TT3 cells
[4] = target: TT3 labeling polypeptide on cells; experiment: flow cytometry on SK-HEP-1-TT3 cells
[5] = target: TT3 labeling polypeptide on cells; experiment: flow cytometry (as for Table 1)

Chain of TT3 labeling polypeptide on cells (P01732 other isoform, or with tags, fused parts or gaps limits assumed): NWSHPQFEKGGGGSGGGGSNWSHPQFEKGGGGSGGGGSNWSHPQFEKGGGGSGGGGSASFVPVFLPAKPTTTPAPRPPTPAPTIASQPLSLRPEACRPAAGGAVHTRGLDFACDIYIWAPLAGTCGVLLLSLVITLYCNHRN

| Binder | EC50 [1] | EC50 [2] | EC50 [3] | EC50 [4] | binding result [5] |
| --- | --- | --- | --- | --- | --- |
| Ab-TT3 (antibody, V domains shown, also called anti-Strep tag II antibody before humanization) VH: EVQLEQSGPELVKPGASVKMSCKASGYTFTNYYMKWVKQSHGKSLEWIGDLNPNNGDTFYNQKFKGKATLTVDKSSNTAYMQLNSLTSEDSAVYYCARTGRYEENAMDYWGQGTSVTVSS VL: ELVMTQSPASLAVSLGQRATISCRASESVDSYGKSFMHWYQLKPGQPPKLLIYRASNLESGVPARFSGSGSRTDFTLTIDPVEADDAATYYCQQNNEDPWTFGGGTKLEIK | 0.0878 nM | – | – | – | – |
| TT3 Ab-2 (antibody, human IgG1, kappa, V domains shown, also called humanized anti-TT3 monoclonal antibody) VH: QVQLVQSGAEVKKPGASVKVSCKASGYTFTNYYMKWVKQAPGQSLEWIGDLNPNNGDTFYNQKFKGRVTITVDKSASTAYMELNSLRSEDTAVYYCARTGRYEENAMDYWGQGTLVTVSS VL: DLVMTQSPASLAVSPGQRATITCRASESVDSYGKSFMHWYQQKPGQPPKLLIYRASNLESGVPARFSGSGSRTDFTLTINPVEANDTANYYCQQNNEDPWTFGQGTKLEIKR | 0.0105 nM | 2.33 nM | 0.958 nM | 1.53 nM | – |
| TT3 Ab-1 (antibody, human IgG1, kappa, V domains shown, also called humanized anti-TT3 monoclonal antibody) VH: QVQLVQSGAEVKKPGASVKVSCKASGYTFTNYYMKWVKQAPGQRLEWMGDLNPNNGDTFYNQKFKGRVTITVDKSASTAYMELSSLRSEDTAVYYCARTGRYEENAMDYWGQGTLVTVSS VL: DIVLTQSPASLAVSPGQRATITCRASESVDSYGKSFMHWYQQKPGQPPKLLIYRASNLESGVPARFSGSGSRTDFTLTINPVEANDTANYYCQQNNEDPWTFGQGTKLEIKR | 0.0104 nM | 1.2 nM | 0.568 nM | 0.546 nM | – |
| TT3 Ab-3 (antibody, human IgG1, kappa, also called humanized anti-TT3 monoclonal antibody) heavy: not shown light: DLVMTQSPASLAVSPGQRATITCRASESVDSYGKSFMHWYQLKPGQPPKLLIYRASNLESGVPARFSGSGSRTDFTLTINPVEANDTANYYCQQNNEDPWTFGQGTKLEIKRTVAAPSVFIFPPSDEQLKSGTASVVCLLNNFYPREAKVQWKVDNALQSGNSQESVTEQDSKDSTYSLSSTLTLSKADYEKHKVYACEVTHQGLSSPVTKSFNRGEC | 0.014 nM | 0.588 nM | 0.692 nM | 0.738 nM | – |
| BK-B-110-hu1 (bispecific antibody) ELVMTQSPASLAVSLGQRATISCRASESVDSYGKSFMHWYQLKPGQPPKLLIYRASNLESGVPARFSGSGSRTDFTLTIDPVEADDAATYYCQQNNEDPWTFGGGTKLEIKGSTSGSGKPGSGEGSTKGEVQLEQSGPELVKPGASVKMSCKASGYTFTNYYMKWVKQSHGKSLEWIGDLNPNNGDTFYNQKFKGKATLTVDKSSNTAYMQLNSLTSEDSAVYYCARTGRYEENAMDYWGQGTSVTVSSPCPAPEFEGGPSVFLFPPKPKDTLMISRTPEVTCVVVDVSHEDPEVKFNWYVDGVEVHNAKTKPREEQYNSTYRVVSVLTVLHQDWLNGKEYKCKVSNKALPASIEKTISKAKGQPREPQVYTLPPSREEMTKNQVSLTCLVKGFYPSDIAVEWESNGQPENNYKTTPPVLDSDGSFFLYSKLTVDKSRWQQGNVFSCSVMHEALHNHYTQKSLSLSPGKGGGGSGGGGSGGGGSQAVVTQEPSLTVSPGGTVTLTCRSSTGAVTTSNYANWVQQKPGQAPRTLIGGTNKRAPWTPARFSGSLLGGKAALTLSGAQPEDEAEYYCALWYSNLWVFGGGTKLTVLGGGGSGGGGSGGGGSEVQLVESGGGLVQPGGSLRLSCAASGFTFNTYAMNWVRQAPGKGLEWVARIRSKYNNYATYYADSVKDRFTISRDDSKNILYLQMNSLKTEDTAVYYCVRHGNFGNSYVSWFAYWGQGTLVTVSA | – | – | – | – | binds |
| BK-B-110-hu3 (bispecific antibody) ELVMTQSPASLAVSLGQRATISCRASESVDSYGKSFMHWYQLKPGQPPKLLIYRASNLESGVPARFSGSGSRTDFTLTIDPVEADDAATYYCQQNNEDPWTFGGGTKLEIKGSTSGSGKPGSGEGSTKGEVQLEQSGPELVKPGASVKMSCKASGYTFTNYYMKWVKQSHGKSLEWIGDLNPNNGDTFYNQKFKGKATLTVDKSSNTAYMQLNSLTSEDSAVYYCARTGRYEENAMDYWGQGTSVTVSSPCPAPEFEGGPSVFLFPPKPKDTLMISRTPEVTCVVVDVSHEDPEVKFNWYVDGVEVHNAKTKPREEQYNSTYRVVSVLTVLHQDWLNGKEYKCKVSNKALPASIEKTISKAKGQPREPQVYTLPPSREEMTKNQVSLTCLVKGFYPSDIAVEWESNGQPENNYKTTPPVLDSDGSFFLYSKLTVDKSRWQQGNVFSCSVMHEALHNHYTQKSLSLSPGKGGGGSGGGGSGGGGSQAVVTQEPSLTVSPGGTVTLTCRSSTGAVTTSNYANWVQEKPGQAPRTLIGGTNKRAPWVPARFSGSLLGDKAALTLSGAQPEDEAEYYCALWYSNLWVFGGGTKLTVLGGGGSGGGGSGGGGSEVQLVESGGGLVQPGGSLRLSCAASGFTFNTYAMNWVRQAPGKGLEWVARIRSKYNNYATYYADSVKDRFTISRDDSKNILYLQMNSLKTEDTAVYYCVRHGNFGNSYVSWFAYWGQGTLVTVSA | – | – | – | – | binds |
| BK-B-110-hu6 (bispecific antibody) ELVMTQSPASLAVSLGQRATISCRASESVDSYGKSFMHWYQLKPGQPPKLLIYRASNLESGVPARFSGSGSRTDFTLTIDPVEADDAATYYCQQNNEDPWTFGGGTKLEIKGSTSGSGKPGSGEGSTKGEVQLEQSGPELVKPGASVKMSCKASGYTFTNYYMKWVKQSHGKSLEWIGDLNPNNGDTFYNQKFKGKATLTVDKSSNTAYMQLNSLTSEDSAVYYCARTGRYEENAMDYWGQGTSVTVSSPCPAPEFEGGPSVFLFPPKPKDTLMISRTPEVTCVVVDVSHEDPEVKFNWYVDGVEVHNAKTKPREEQYNSTYRVVSVLTVLHQDWLNGKEYKCKVSNKALPASIEKTISKAKGQPREPQVYTLPPSREEMTKNQVSLTCLVKGFYPSDIAVEWESNGQPENNYKTTPPVLDSDGSFFLYSKLTVDKSRWQQGNVFSCSVMHEALHNHYTQKSLSLSPGKGGGGSGGGGSGGGGSQAVVTQEPSLTVSPGGTVTLTCRSSTGAVTTSNYANWVQEKPGQAPRTLIGGTNKRAPWVPARFSGSLLGDKAALTLSGAQPEDEAEYYCALWYSNLWVFGGGTKLTVLGGGGSGGGGSGGGGSEVQLVESGGGLVQPGGSLRLSCAASGFTFNTYAMNWVRQAPGKGLEWVARIRSKYNNYATYYADSVKDRFTISRDDSKNILYLQMNSLKTEDTAMYYCVRHGNFGNSYVSWFAYWGQGTLVTVSA | – | – | – | – | binds |
| BK-B-110-hu4 (bispecific antibody) ELVMTQSPASLAVSLGQRATISCRASESVDSYGKSFMHWYQLKPGQPPKLLIYRASNLESGVPARFSGSGSRTDFTLTIDPVEADDAATYYCQQNNEDPWTFGGGTKLEIKGSTSGSGKPGSGEGSTKGEVQLEQSGPELVKPGASVKMSCKASGYTFTNYYMKWVKQSHGKSLEWIGDLNPNNGDTFYNQKFKGKATLTVDKSSNTAYMQLNSLTSEDSAVYYCARTGRYEENAMDYWGQGTSVTVSSPCPAPEFEGGPSVFLFPPKPKDTLMISRTPEVTCVVVDVSHEDPEVKFNWYVDGVEVHNAKTKPREEQYNSTYRVVSVLTVLHQDWLNGKEYKCKVSNKALPASIEKTISKAKGQPREPQVYTLPPSREEMTKNQVSLTCLVKGFYPSDIAVEWESNGQPENNYKTTPPVLDSDGSFFLYSKLTVDKSRWQQGNVFSCSVMHEALHNHYTQKSLSLSPGKGGGGSGGGGSGGGGSQAVVTQEPSLTVSPGGTVTLTCRSSTGAVTTSNYANWVQQKPGQAPRTLIGGTNKRAPWTPARFSGSLLGGKAALTLSGAQPEDEAEYYCALWYSNLWVFGGGTKLTVLGGGGSGGGGSGGGGSEVQLVESGGGLVQPGGSLRLSCAASGFTFNTYAMNWVRQAPGKGLEWVARIRSKYNNYATYYADSVKDRFTISRDDSKNILYLQMNSLKTEDTAMYYCVRHGNFGNSYVSWFAYWGQGTLVTVSA | – | – | – | – | binds |
| BK-B-110-hu5 (bispecific antibody) ELVMTQSPASLAVSLGQRATISCRASESVDSYGKSFMHWYQLKPGQPPKLLIYRASNLESGVPARFSGSGSRTDFTLTIDPVEADDAATYYCQQNNEDPWTFGGGTKLEIKGSTSGSGKPGSGEGSTKGEVQLEQSGPELVKPGASVKMSCKASGYTFTNYYMKWVKQSHGKSLEWIGDLNPNNGDTFYNQKFKGKATLTVDKSSNTAYMQLNSLTSEDSAVYYCARTGRYEENAMDYWGQGTSVTVSSPCPAPEFEGGPSVFLFPPKPKDTLMISRTPEVTCVVVDVSHEDPEVKFNWYVDGVEVHNAKTKPREEQYNSTYRVVSVLTVLHQDWLNGKEYKCKVSNKALPASIEKTISKAKGQPREPQVYTLPPSREEMTKNQVSLTCLVKGFYPSDIAVEWESNGQPENNYKTTPPVLDSDGSFFLYSKLTVDKSRWQQGNVFSCSVMHEALHNHYTQKSLSLSPGKGGGGSGGGGSGGGGSQAVVTQEPSLTVSPGGTVTLTCRSSTGAVTTSNYANWVQQKPGQAPRTLIGGTNKRAPWVPARFSGSLLGDKAALTLSGAQPEDEAEYYCALWYSNLWVFGGGTKLTVLGGGGSGGGGSGGGGSEVQLVESGGGLVQPGGSLRLSCAASGFTFNTYAMNWVRQAPGKGLEWVARIRSKYNNYATYYADSVKDRFTISRDDSKNILYLQMNSLKTEDTAMYYCVRHGNFGNSYVSWFAYWGQGTLVTVSA | – | – | – | – | binds |
